Measurements as given in patent US20210009663A1 (published 2021).

What was measured:
[1] = molecular target: T1, Zika virus envelope protein, strain H/PF/2013 (French Polynesia 2013) (Zika virus)
[2] = molecular target: T1, Zika virus envelope protein, strain …; assay: cell-based or functional assay

T1 sequence (A0A024B7W1 291-794): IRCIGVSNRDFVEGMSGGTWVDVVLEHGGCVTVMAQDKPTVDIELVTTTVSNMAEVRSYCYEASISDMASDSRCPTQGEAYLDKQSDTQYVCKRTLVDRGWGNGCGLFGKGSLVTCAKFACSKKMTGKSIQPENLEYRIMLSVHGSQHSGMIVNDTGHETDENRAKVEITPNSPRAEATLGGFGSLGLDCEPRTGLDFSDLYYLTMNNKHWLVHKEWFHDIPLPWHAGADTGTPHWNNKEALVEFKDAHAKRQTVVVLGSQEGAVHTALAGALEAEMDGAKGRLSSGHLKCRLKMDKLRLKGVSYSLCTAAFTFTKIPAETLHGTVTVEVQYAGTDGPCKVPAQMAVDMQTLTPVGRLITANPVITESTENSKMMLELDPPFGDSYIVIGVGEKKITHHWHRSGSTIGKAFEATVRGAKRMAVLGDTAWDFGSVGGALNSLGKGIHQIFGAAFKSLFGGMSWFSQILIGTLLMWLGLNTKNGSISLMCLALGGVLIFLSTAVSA

B1: fusion loop targeting pan-flavivirus antibody 4G2 (antibody, V domains shown)
VH: EVQLQQSGPELVKPGTSVKISCKTSGYTFTEYTIHWVKQSHGKSLAWIGGIDPNSGGTNYSPNFKGKATLTVDKSSSTAYMDLRSLSSEDSAVYFCARIYHYDGYFDVWGAGTAVTVSS
VL: DIKMTQSPSSMYASLGERVTITCKASQDINSYLTWFQQKPGKSPKTLIYRANRLIDGVPSRFSGSGSGQDYSLTISSLDYEDMGIYYCLQYDEFPPTFGGGTKLEIKR
[1]
  Kd: 10.3 µg/mL

B2: mAb 8 (antibody, V domains shown)
VH: EVQLLESGGGLVQPGGSLRLSCAASGFSFSTYSMHWVRQAPGKGLEWVSAISGEGDSAYYADSVKGRFTISRDNSKNTLYLQMNKVRAEDTAVYYCVGGYSNFYYYYTMDAWGQGTMVTVSS
VL: DIVMTQSPASLSLSPGERATLSCRATQSISTFLAWYQQKPGQAPRLLIYDASTRASGIPARFSGSRSGTDFTLTITRLEPEDFAVYYCQQRYNWPPYSFGQGTKLEIK
[2]
  ADE in THP1.2S cells, viral titers at peak enhancement: ≥ 3 fold
  PRNT50: 5.09 µg/mL
